Biological target: SERCA2a wild type (WT), expressed from a plasmid in HEK293 cells
Assay: cell-based or functional assay

flag-tagged SUMO1 (from UniProt P63165 2-97)
EC50 (Ca2+) of ATPase activity of WT SERCA2a with co-expression of SUMO1: 0.11 µM

Reference: patent publication US20170014494A1
